Measurements from IntAct's records for PubMed 36096339.

Columns and labels:
1433e_human YWHAE = 1433e_human YWHAE (UniProt P62258)
1433g_human YWHAG = 1433g_human YWHAG (UniProt P61981)
1433b_human YWHAB = 1433b_human YWHAB (UniProt P31946)
1433z_human YWHAZ = 1433z_human YWHAZ (UniProt P63104)
1433f_human YWHAH = 1433f_human YWHAH (UniProt Q04917)
1433t_human YWHAQ = 1433t_human YWHAQ (UniProt P27348)
Sequence of UniProt P27348 (P27348 whole entry): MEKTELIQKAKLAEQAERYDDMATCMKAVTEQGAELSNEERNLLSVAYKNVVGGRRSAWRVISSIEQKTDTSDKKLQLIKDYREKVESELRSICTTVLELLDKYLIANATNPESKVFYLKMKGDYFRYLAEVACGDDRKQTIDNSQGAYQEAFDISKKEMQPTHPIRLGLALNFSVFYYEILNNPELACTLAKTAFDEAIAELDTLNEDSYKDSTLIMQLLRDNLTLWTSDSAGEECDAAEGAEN

Sequence of UniProt P63104 (P63104 whole entry): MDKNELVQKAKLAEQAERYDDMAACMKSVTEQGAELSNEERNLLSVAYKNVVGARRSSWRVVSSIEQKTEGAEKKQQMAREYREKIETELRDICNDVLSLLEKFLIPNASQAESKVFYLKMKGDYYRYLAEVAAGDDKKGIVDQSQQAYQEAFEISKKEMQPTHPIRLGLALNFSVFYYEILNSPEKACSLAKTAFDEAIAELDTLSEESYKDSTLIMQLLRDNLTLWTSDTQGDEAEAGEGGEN
Sequence of UniProt P31946 (P31946 whole entry): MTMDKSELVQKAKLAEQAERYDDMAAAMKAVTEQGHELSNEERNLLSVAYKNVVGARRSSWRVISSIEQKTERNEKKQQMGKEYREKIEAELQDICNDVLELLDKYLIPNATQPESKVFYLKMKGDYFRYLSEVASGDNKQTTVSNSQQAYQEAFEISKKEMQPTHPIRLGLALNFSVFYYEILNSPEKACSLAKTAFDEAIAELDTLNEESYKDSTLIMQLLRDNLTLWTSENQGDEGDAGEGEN
Sequence of UniProt P62258 (P62258 whole entry): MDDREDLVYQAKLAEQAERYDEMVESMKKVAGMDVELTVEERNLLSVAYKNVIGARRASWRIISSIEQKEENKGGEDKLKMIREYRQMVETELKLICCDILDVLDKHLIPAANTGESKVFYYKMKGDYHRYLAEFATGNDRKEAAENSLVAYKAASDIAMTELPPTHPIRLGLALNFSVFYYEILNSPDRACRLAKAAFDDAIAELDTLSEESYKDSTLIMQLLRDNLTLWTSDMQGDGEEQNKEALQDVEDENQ
Sequence of UniProt P61981 (P61981 whole entry): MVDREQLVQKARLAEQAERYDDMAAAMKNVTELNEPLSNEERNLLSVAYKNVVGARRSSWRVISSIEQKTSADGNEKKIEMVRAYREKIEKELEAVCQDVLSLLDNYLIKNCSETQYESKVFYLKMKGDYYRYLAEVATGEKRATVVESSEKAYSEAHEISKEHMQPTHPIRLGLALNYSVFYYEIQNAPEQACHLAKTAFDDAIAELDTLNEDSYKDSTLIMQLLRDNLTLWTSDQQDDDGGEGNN
Sequence of UniProt Q04917 (Q04917 whole entry): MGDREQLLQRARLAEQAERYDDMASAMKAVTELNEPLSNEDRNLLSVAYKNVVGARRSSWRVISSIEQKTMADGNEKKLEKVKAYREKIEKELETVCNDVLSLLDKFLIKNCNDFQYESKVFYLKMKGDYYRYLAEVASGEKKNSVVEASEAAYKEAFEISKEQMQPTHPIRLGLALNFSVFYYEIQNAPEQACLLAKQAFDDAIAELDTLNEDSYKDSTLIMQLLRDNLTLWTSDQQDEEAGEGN

effect of a mutation on the interaction (1433e_human YWHAE): with no effect
effect of a mutation on the interaction (1433g_human YWHAG): decreasing interaction strength
effect of a mutation on the interaction (1433b_human YWHAB): decreasing interaction strength
effect of a mutation on the interaction (1433z_human YWHAZ): decreasing interaction strength
effect of a mutation on the interaction (1433f_human YWHAH): decreasing interaction strength
effect of a mutation on the interaction (1433t_human YWHAQ): decreasing interaction strength
Substance: Spatacsin (Homo sapiens), Q96JI7 S1955A
